Results on two molecules are retold here after US20260258125A1 (NONA BIOSCIENCES SUZHOU, published 2026).

Where a chain is given by its changes, count along the chain named.

For assay [1], the target named is T1, recombinant CEACAM5-his protein, biotinylated (UniProt P06731 35-685, limits assumed, biotinylated (sites not given)).
T1 construct: not shown: His tag
T1 sequence (looked up): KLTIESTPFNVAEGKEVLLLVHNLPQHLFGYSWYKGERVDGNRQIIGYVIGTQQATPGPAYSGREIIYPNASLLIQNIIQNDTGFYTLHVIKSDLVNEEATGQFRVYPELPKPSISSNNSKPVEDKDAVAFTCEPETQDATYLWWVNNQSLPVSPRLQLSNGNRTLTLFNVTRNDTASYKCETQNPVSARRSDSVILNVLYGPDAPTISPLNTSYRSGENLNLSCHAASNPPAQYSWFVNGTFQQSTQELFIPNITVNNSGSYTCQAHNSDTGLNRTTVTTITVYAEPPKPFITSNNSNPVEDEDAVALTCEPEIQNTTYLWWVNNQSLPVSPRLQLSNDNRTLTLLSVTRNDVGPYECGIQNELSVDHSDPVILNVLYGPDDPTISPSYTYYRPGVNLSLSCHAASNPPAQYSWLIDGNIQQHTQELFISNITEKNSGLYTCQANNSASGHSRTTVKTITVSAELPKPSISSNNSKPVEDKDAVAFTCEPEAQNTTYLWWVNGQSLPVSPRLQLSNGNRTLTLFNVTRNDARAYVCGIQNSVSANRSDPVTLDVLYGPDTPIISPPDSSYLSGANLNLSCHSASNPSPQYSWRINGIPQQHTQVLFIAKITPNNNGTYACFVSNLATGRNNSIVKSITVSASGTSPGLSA
Description: Octet epitope binning on biotinylated CEACAM5-his; competitor PR303561. The method, then: (§1) In epitope binning analysis using Octet, antibodies were tested against other antibodies in a pairwise fashion to see if antibodies block one another's binding to the epitope of the antigen. The first and second antibodies was diluted into same concentration which could saturate the binding of immobilized antigens. Recombinant CEACAM5-his protein was biotinylationed and was then used as antigen and immobilized to SA sensor. The first antibody was associated with antigen and then followed by the second antibody. Data were analyzed by ForteBio Data Analysis Software (version 8.0, Pall ForteBio). The rate of RU values of the same antibody as 2nd antibody to as 1st antibody was calculated as the co-binding rate of this antibody to other antibodies.

Assay [2] deals with T2, human CEACAM5 on 293T cells (293T-huCEACAM5 cells) (human, UniProt P06731 35-685).
T2 construct: whole, on cells
T2 sequence (looked up): T1 sequence (looked up)
Description: flow cytometry on 293T-huCEACAM5 cells. The protocol:
(§2) Binding of recombinant anti-CEACAM5/6 dual-binding antibodies against human or cynomolgus CEACAM5 or CEACAM6 stable cells were detected by flow cytometry. […] Anti-CEACAM5/6 dual-binding antibodies were incubated with the stable cell lines. Anti-CEACAM5/6 dual-binding antibodies were serially diluted in staining buffer (PBS containing 2% FBS). 50 μL of diluted antibody solution was added to 50 μL of cell suspension containing 1-2×10⁵ cells and incubated at 4° C. for 1 hour. […] After 1-hour incubation at 4° C., cells were washed twice and run on a flow cytometer. […] The results were shown in FIGS. 8-10 and Tables 6 below.

Assay [3] concerns the target T1, recombinant CEACAM5-his protein, …. Description: Octet epitope binning on biotinylated CEACAM5-his; competitor PR304294. The method, then:
as §1

The target of the next assay is T3, human CEACAM6 protein (human, UniProt P40199 35-320).
T3 construct: also called huCEACAM6
T3 sequence (looked up): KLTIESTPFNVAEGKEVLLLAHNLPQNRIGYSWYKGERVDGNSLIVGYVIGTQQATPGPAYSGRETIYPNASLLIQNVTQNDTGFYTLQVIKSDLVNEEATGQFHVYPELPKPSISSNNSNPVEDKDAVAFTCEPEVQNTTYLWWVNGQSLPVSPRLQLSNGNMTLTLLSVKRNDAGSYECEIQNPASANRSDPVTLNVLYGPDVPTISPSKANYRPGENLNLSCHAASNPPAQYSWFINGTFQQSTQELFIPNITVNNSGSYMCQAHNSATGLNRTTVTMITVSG
The experiment in a line: ELISA, antigen coated on plate. An excerpt: (§3) Binding of recombinant anti-CEACAM5/6 dual-binding monoclonal antibodies against human and cynomolgus CEACAM5, and human CEACAM6 (Uniprot P40199), human CEACAM 1, 3 (NP_001806.2, Sino Biological 11933-H08H) and 8 (NP_001807.2, Acro Bio CE8-H5224) were detected by ELISA. Anti-CEACAM5/6 dual-antibodies were serially diluted in staining buffer (PBS containing 2% FBS). […] ELISA was used to test the binding between antibody containing supernatant or purified antibodies and the antigen. Briefly, the antigens were coated on a 96-well high binding plate overnight at 4° C. The plate was washed with PBST three times, incubated with blocking buffer (2% Bovine Serum Albumin) for one hour at 37° C., washed with PBST three times and incubated with antibody containing supernatant or purified antibodies at desired dilutions or concentrations for one hour at 37° C. A secondary antibody, anti-human Fc-HRP (Jackson Laboratory, 109-035-097) was used for detection of the targeted antibody. TMB and stopping solution were used for detection of HRP signal. The HRP signal was read on a SPECTRAMAX plate reader.

Another assay concerns the target T4, human CEACAM5 protein (human, UniProt P06731 35-685).
T4 construct: also called huCEACAM5
T4 sequence (looked up): T1 sequence (looked up)
Description: ELISA, antigen coated on plate.
Description: as §3

For assay [4], the target named is T5, human CEACAM6 on 293T cells (293T-huCEACAM6 cells) (human, UniProt P40199 35-320).
T5 construct: whole, on cells
T5 sequence (looked up): T3 sequence (looked up)
Description: flow cytometry on 293T-huCEACAM6 cells. The method, then:
as §2

Assay [5] has as its target T6, cynomolgus CEACAM5 on CHO-K1 cells (CHOK1-cyno CEACAM5 cells) (cynomolgus monkey).
T6 construct: whole, on cells; also called CHOK1-cynoCECAM5
The experiment in a line: flow cytometry on CHOK1-cyno CEACAM5 cells. The method, then: as §2

Assay [6] deals with T1, recombinant CEACAM5-his protein, …. The experiment in a line: Octet epitope binning on biotinylated CEACAM5-his; competitor PR304169. The protocol: as §1

B1: PR304294 (antibody, human IgG1, kappa, V domains shown)
VH: EVQLLESGGGLVQPGGSLRLSCAASGFTFSSYAMSWVRQAPGKGLEWVSAISGTTYNTYYAGSVKGRFTISRDNSKNTLYLQMNSLRAEDTAVYYCAKGISVAGYYYYGMDVWGQGTTVTVSS
VL: EIVMTQSPATLSVSPGERATLSCRASQSVISNLAWYQQKPGQAPRLLIYGASTRATGIPARFSGSGSGTEFTLTISSLQSEDFAVYYCHQYNNWPLTFGGGTKVEIKR
notes: Recombinant full antibody
Turning to B1, the co-binding rate in assay [1] turned out to be 102%; in assay [3], 1.8%; in assay [6], 1.02%. Further, the concentration giving a half-maximal response (EC50) was determined as 1.26 nM in assay [2]; 0.22 nM with human CEACAM6 protein; 0.04 nM with human CEACAM5 protein; 1.32 nM in assay [4]; 2.51 nM in assay [5].

B2: PR304171 (antibody, human IgG1, kappa, V domains shown)
VH: not shown
VL: B1 VL with S28N, Y36H, G50T, A51T, H89Q
notes: Recombinant full antibody
For B2, the co-binding rate came to 101% in assay [1], 24.4% in assay [3] and 20.4% in assay [6]. In addition, the EC50 is 3.64 nM in assay [2]; 24.1 nM with human CEACAM6 protein; 0.15 nM with human CEACAM5 protein; 10.6 nM in assay [4]; 14.9 nM in assay [5].
